Results from paper PMC5735301 (Oncogene, 2017).
“And” between values parts separate entries of the source, which are not always exact repeats. Identical values can stand only once.

Target: the molecule itself

B1: RXRα (protein of Supplementary Figure S1f; tetramer and dimer) (natural protein)
chain: MDTKHFLPLDFSTQVNSSLTSPTGRGSMAAPSLHPSLGPGIGSPGQLHSPISTLSSPINGMGPPFSVISSPMGPHSMSVPTTPTLGFSTGSPQLSSPMNPVSSSEDIKPPLGLNGVLKVPAHPSGNMASFTKHICAICGDRSSGKHYGVYSCEGCKGFFKRTVRKDLTYTCRDNKDCLIDKRQRNRCQYCRYQKCLAMGMKREAVQEERQRGKDRNENEVESTSSANEDMPVERILEAELAVEPKTETYVEANMGLNPSSPNDPVTNICQAADKQLFTLVEWAKRIPHFSELPLDDQVILLRAGWNELLIASFSHRSIAVKDGILLATGLHVHRNSAHSAGVGAIFDRVLTELVSKMRDMQMDKTELGCLRAIVLFNPDSKGLSNPAEVEALREKVYASLEAYCKHKYPEQPGRFAKLLLRLPALRSIGLKCLEHLFFFKLIGDTPIDTFLMEMLEAPHQMT
- stoichiometry N: 4 and 2
